Results published in US20240083991A1 (Pfizer, published 2024).
Residue numbers refer to the chain shown, from its start.

T1: human GDF8 (human, UniProt O14793 267-375)
T1 sequence (looked up): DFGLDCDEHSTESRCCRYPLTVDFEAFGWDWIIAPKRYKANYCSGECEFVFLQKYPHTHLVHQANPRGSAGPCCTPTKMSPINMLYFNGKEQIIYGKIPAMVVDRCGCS

T2: human mature BMP9 (human, UniProt Q9UK05 320-429)
T2 construct: also called GDF2; Human BMP9-biotin
T2 sequence: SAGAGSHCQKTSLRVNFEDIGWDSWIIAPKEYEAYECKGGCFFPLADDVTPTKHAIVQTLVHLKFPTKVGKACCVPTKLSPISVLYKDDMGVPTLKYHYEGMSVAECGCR

T3: cyno BMP9 (mature) (cynomolgus monkey, UniProt G7PEU8 320-429)
T3 construct: mature; Biotinylated for SPR capture; also called Cyno BMP9-biotin; cynomolgus monkey BMP9
T3 sequence: T2 sequence with A2T, D23N, V84I

T4: rat BMP9 (mature) (rat, UniProt M0RB87 320-430, Chemically biotinylated for capture on the SPR chip; sites not stated. Natural mature BMP9 is a disulfide-linked homodimer; one monomer chain is given.)
T4 construct: Biotinylated for SPR capture; also called Rat BMP9-biotin
T4 sequence: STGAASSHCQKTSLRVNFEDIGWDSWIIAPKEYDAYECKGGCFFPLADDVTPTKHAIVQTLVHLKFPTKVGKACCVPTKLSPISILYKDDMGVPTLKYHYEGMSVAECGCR

B1: Ab732 (antibody, human IgG1, lambda, V domains shown)
VH: QVQLVQSGAEVKKPGASVKVSCKASGYTFTSYGISWVRQAPGQGLEWMGWISAYIGNTNYAQKLQGRVTMTTDTSISTAYMELSRLRSDDTAVYYCARAYYMDVWGQGTTVTVSS
VL: NFMLTQPHSVSESPGKTVTISCTGSSGNIASNYVQWYQQRPGSAPTTVIYEDKQRPSGVPDRFSGSIDRSSNSASLTISGLKTEDEADYYCQSYDNHLSVVFGGGTKLTVLG
B2: Ab101 (antibody, human IgG1, lambda, V domains shown)
VH: B1 VH with I55N, I76T, S84R, R85S, Y101G
VL: B1 VL with N28S, H97S
notes: Parental clone converted to human IgG1/lambda; The heavy chain can be prepared with or without the C-terminal lysine; also called BMP9-0101
B3: Ab89 (antibody, human IgG1, lambda, V domains shown)
VH: QVQLVQSGAEVKKPGASVKVSCKASGYTFTSYYMHWVRQAPGQGLEWMGIINPSGGSTSYAQKFQGRVTMTRDTSTSTVYMELSSLRSEDTAVYYCASRDYYGSGRVYYYYGMDVWGQGTTVTVSS
VL: B1 VL with N28S, K53N, R69S, N96S, H97S, L98I, S99H
notes: Parental anti-BMP9 antibody from a human phage library, human IgG1/lambda; The heavy chain can be prepared with or without the C-terminal lysine
B4: Ab93 (antibody, human IgG1, lambda, V domains shown)
VH: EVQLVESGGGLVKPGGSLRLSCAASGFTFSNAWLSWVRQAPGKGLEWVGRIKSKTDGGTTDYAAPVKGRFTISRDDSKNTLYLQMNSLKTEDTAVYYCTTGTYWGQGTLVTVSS
VL: QSVLTQPPSASGTPGQRVTISCSVTNSDIDIDNVHWYQQLPGMAPKLLFFHDYRPSGVSDRFSGSKSGTSASLAIVGLQSEDEGYYYCAGLDVAMRGPVFGGGTKLTVLG
notes: Parental clone converted to human IgG1/lambda; The heavy chain can be prepared with or without the C-terminal lysine; also called BMP9-0093
B5: Ab352 (antibody, human IgG1, lambda, V domains shown)
VH: EVQLVESGGGLVQPGGSLRLSCAASGFTFSNAWMSWVRQAPGKGLEWVGRIKSKTDSGTTDYAAPVKGRFTISRDNAKNSLYLQMNSLRAEDTAVYYCTTGTYWGQGTLVTVSS
VL: B4 VL with D32F, M43T, V76S, Q79R, G84A, Y85D
notes: Optimized variant of Ab93; The heavy chain can be prepared with or without the C-terminal lysine
B6: Ab1076 Fab (Fab, V domains shown)
VH: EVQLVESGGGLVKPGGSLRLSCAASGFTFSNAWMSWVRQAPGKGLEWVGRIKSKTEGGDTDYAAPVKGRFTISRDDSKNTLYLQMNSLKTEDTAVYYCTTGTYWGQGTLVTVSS
VL: B4 VL with S27T, D32F, M43T, V93E
notes: Monovalent Fab fragment of Ab1076; also called Ab1076 Fab fragment
B7: Ab804 (antibody, human IgG1, lambda, V domains shown)
VH: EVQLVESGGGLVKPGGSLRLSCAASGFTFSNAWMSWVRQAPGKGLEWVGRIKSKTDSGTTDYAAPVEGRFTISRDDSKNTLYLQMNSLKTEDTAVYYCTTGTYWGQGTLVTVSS
VL: B4 VL with S27P, D32F, M43T, D52E, V93E
notes: as for B5
B8: Ab100 (antibody, human IgG1, lambda, V domains shown)
VH: QMQLVQSGAEVKKPGSSVKVSCKASGGTFSSYAISWVRQAPGQGLEWMGGIIPIFGTANYAQKFQGRVTITADESTSTAYMELSSLRSEDTAVYYCARVQLDLSYYYYYGMDVWGQGTTVTVSS
VL: QSALTQPASVSGSPGQSITISCTGTSSDVGSYNLVSWYQQHPGKAPKLMIYEVSKRPSGVSDRFSGSKSANTASLTISGLQAEDEADYYCSSFSINGPSFVFGTGTKVTVLG
notes: Parental anti-BMP9 antibody, human IgG1/lambda; The heavy chain can be prepared with or without the C-terminal lysine

Assays:
[1] = target: T1, human GDF8; experiment: cell-based or functional assay
[2] = target: T2, human mature BMP9; experiment: competition ELISA: antibody mixed with 5 nM BMP9-biotin, binding to coated ActRIIA (5 µg/ml) detected
Procedure: (§1) For competition ELISAs, each receptor protein was coated on a 384-well ELISA plate at its optimal coating concentration, 20 μl/well in PBS-CMF at 4° C. overnight. The next day, plates were washed 3 times with PBS+0.05% TWEEN™ 20 and blocked with PBS+1% BSA for 1 hr at RT with shaking. Anti-BMP9 Abs were serially diluted 3-fold in PBS+1% BSA, starting from 100 nM, then mixed with the same volume of the optimal concentration of biotinylated BMP9. The final concentration of biotinylated BMP9 corresponded to the EC₉₀ for each receptor, as determined in a preliminary experiment described above.
(§2) Serially diluted Abs were incubated with biotinylated BMP9 for at least 15 min at RT. Plates were washed as before, followed by addition of serially diluted Abs and the biotinylated BMP9 mixture. After incubating for 1 hr at RT, plates were washed 3 times with PBS+0.05% TWEEN™ 20. Secondary antibody was added (HRP-Streptavidin from BioLegend, cat #405210, 1:2000), followed by 1 hr incubation at RT. Plates were washed as before, signal was developed using TMB substrate, and the reaction stopped with 0.18 M H₂SO₄. Absorbance was read at 450 nm on an ENVISION® plate reader (Perkin Elmer).

[3] = target: T2, human mature BMP9; experiment: cell-based or functional assay
[4] = target: T2, human mature BMP9; experiment: competition ELISA: antibody mixed with 15 nM BMP9-biotin, binding to coated ActRIIB (5 µg/ml) detected
Procedure: as §1, §2

[5] = target: T2, human mature BMP9; experiment: competition ELISA: antibody mixed with 1.5 nM BMP9-biotin, binding to coated BMPRII (2 µg/ml) detected
Procedure: as §1, §2

[6] = target: T2, human mature BMP9; experiment: cell-based or functional assay; remark: listed apart in the source
[7] = target: T2, human mature BMP9; experiment: competition ELISA: antibody mixed with 0.6 nM BMP9-biotin, binding to coated BMPRII (1 µg/ml) detected
Procedure: as §1, §2

[8] = target: T3, cyno BMP9 (mature); experiment: SPR (Biacore T200), 37° C., biotinylated BMP9 captured on Sensor Chip CAP, Fab as analyte, 1:1 model
Procedure: (§3) The running and sample buffer was 10 mM HEPES pH 7.4, 0.15 M NaCl, 3 mM EDTA, 0.05% P-20 (HBS-EP+). Biotinylated mature human, cyno, and rat BMP9 proteins were reversibly captured onto a Sensor Chip CAP using the Biotin CAPture Reagent (Cytiva, 28920234) according to the manufacturer's instructions. The final capture level of human BMP9 was 100 resonance units (RU), cyno BMP9 was 50 RU, and rat BMP9 was 60 RU. Flow cell 1, without BMP9, was used as a reference flow cell. A two-fold dilution series of the Ab1076 Fab ranging from 100 nM to 6.2 nM was injected for 60 seconds at a flow rate of 100 μl per minute and the dissociation was monitored for 1800 seconds. Rate constants and affinities were determined by fitting the double referenced sensorgram data to a 1:1 model in BIACORE™ Insight Evaluation software version 3.0.1.12.15655 (Cytiva).

[9] = target: T4, rat BMP9 (mature); experiment: as above
Procedure: as §3

[10] = target: T2, human mature BMP9; experiment: as above
Procedure: as §3

Binder	IC50 (read off the curve) [2] [nM]	IC50 (read off the curve): BMP9-induced pSMAD1/5/9 nuclear translocation, TIME cells [3] [nM]	IC50 (read off the curve) [4] [nM]	IC50 (read off the curve) [5] [nM]	IC50 (read off the curve) [7] [nM]	also measured
B1						IC50 (read off the curve): GDF8-induced CAGA-luciferase activity, C2C12 reporter cells [1]: ~600 nM
B2	~3	~80	~10			
B3	~2		~8	~4		
B4	~1	~0.1	~7	~4	~0.5	IC50 (read off the curve): BMP9-induced pSMAD2 nuclear translocation, TIME cells [6]: ~0.08 nM
B5		~0.05			~0.2	
B6						Kd [8]: 0.0658 nM; koff [8]: 3.84e-05 s⁻¹; kon [8]: 585000 M⁻¹ s⁻¹; Kd [9]: 0.0986 nM; koff [9]: 5.14e-05 s⁻¹; kon [9]: 532000 M⁻¹ s⁻¹; Kd [10]: 0.0874 nM; koff [10]: 3.84e-05 s⁻¹; kon [10]: 440000 M⁻¹ s⁻¹
B7					~0.2	
B8	~3		~8	~4		
